Source: paper PMC5131779

How the values were obtained:
[1] = biological target: T1, G5N WT (Homo sapiens, UniProt Q8TEQ6 1-726); test: EMSA
[2] = biological target: T1, G5N WT; test: crystal structure
[3] = biological target: T1, G5N WT; test: EMSA; remark: listed apart in the source
[4] = biological target: G5N Y474A (Homo sapiens, UniProt Q8TEQ6 1-726, Y474A); test: EMSA
[5] = biological target: G5N R335E (Homo sapiens, UniProt Q8TEQ6 1-726, R335E); test: FP
[6] = biological target: G5N Y383F (Homo sapiens, UniProt Q8TEQ6 1-726, Y383F); test: FP
[7] = biological target: G5N M403E (Homo sapiens, UniProt Q8TEQ6 1-726, M403E); test: FP
[8] = biological target: T1, G5N WT; test: FP
[9] = biological target: G5N R33A (Homo sapiens, UniProt Q8TEQ6 1-726, R33A); test: FP
[10] = biological target: G5N N13A (Homo sapiens, UniProt Q8TEQ6 1-726, N13A); test: FP
[11] = biological target: G5N R359A (Homo sapiens, UniProt Q8TEQ6 1-726, R359A); test: FP
[12] = biological target: G5N M357A (Homo sapiens, UniProt Q8TEQ6 1-726, M357A); test: FP
Chain of G5N M357A (Q8TEQ6 1-726 M357A): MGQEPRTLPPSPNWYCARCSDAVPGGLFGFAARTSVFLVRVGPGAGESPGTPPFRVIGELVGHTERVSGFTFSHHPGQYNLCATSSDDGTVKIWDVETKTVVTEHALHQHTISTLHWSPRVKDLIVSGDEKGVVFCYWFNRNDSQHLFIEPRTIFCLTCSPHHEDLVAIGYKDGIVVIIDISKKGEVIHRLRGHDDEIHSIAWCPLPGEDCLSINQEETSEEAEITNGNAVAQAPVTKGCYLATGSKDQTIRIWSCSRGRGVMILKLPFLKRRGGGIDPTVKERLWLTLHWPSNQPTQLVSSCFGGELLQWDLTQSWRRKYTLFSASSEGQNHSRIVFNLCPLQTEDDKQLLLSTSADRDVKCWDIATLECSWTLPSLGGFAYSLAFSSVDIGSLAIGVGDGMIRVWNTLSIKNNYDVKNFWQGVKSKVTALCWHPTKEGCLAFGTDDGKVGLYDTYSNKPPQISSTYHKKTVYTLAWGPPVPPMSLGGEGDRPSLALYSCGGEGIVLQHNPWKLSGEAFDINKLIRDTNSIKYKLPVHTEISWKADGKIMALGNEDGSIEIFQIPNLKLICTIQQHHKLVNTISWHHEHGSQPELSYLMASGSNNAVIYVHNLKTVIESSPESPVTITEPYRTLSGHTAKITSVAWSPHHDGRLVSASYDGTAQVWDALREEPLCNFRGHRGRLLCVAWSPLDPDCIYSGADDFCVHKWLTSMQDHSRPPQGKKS

T1 sequence (Q8TEQ6 1-726): as the sequence (Q8TEQ6 1-726 M357A) above, with A357M counted along it
Chain of G5N M403E (Q8TEQ6 1-726 M403E): as the sequence (Q8TEQ6 1-726 M357A) above, with A357M, M403E counted along it
Chain of G5N R33A (Q8TEQ6 1-726 R33A): as the sequence (Q8TEQ6 1-726 M357A) above, with R33A, A357M counted along it
Chain of G5N R359A (Q8TEQ6 1-726 R359A): as the sequence (Q8TEQ6 1-726 M357A) above, with A357M, R359A counted along it
Chain of G5N Y383F (Q8TEQ6 1-726 Y383F): as the sequence (Q8TEQ6 1-726 M357A) above, with A357M, Y383F counted along it
Chain of G5N Y474A (Q8TEQ6 1-726 Y474A): as the sequence (Q8TEQ6 1-726 M357A) above, with A357M, Y474A counted along it
Chain of G5N R335E (Q8TEQ6 1-726 R335E): as the sequence (Q8TEQ6 1-726 M357A) above, with R335E, A357M counted along it
Chain of G5N N13A (Q8TEQ6 1-726 N13A): as the sequence (Q8TEQ6 1-726 M357A) above, with N13A, A357M counted along it

Binder: AAUUUUUG (ssRNA) [U4 8-mer]
- binding result [1]: binds

Binder: CAAUUUUUG (ssRNA) [U4 9-mer (soak)]
- binding result [2]: binds

Binder: CAAUUUUUGAC (ssRNA) [U4 11-mer]
- binding result [3]: binds

Binder: AUUUUUG (ssRNA) [U4 7-mer (bare Sm site)]
- binding result [2]: binds

Binder: GCAAUUUUUGACA (ssRNA) [U4 13-mer]
- binding result [4]: binds

Binder: GCAAUUUUUGACA (ssRNA) [U4 13-mer, FITC]
- Kd [5]: 96.7 µM
- Kd [6]: 3.8 µM
- Kd [7]: 2 µM
- Kd [8]: 0.24 µM
- Kd [9]: 3.3 µM
- Kd [10]: 1.4 µM
- Kd [11]: 46.6 µM
- Kd [12]: 8.1 µM
